Results reported in PMC2836542 (International Journal of Biological Sciences, 2010).

Molecular target: E2F-1/Y411A (UniProt Q01094 1-437, Y411A)
Test: co-IP

Sequence of E2F-1/Y411A (Q01094 whole entry Y411A): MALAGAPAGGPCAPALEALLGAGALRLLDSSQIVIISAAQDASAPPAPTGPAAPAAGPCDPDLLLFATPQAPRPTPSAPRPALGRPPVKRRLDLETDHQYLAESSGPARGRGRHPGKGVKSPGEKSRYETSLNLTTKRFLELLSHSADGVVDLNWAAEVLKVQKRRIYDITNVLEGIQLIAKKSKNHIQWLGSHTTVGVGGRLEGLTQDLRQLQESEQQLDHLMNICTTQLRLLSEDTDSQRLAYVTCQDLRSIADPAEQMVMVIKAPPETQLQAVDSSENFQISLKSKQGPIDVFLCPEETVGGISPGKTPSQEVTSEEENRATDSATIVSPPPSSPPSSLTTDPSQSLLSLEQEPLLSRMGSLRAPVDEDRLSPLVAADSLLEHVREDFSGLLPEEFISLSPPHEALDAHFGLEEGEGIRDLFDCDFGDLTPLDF

B1: pRB (natural protein, mouse (endogenous in ψ-CRE), UniProt P13405 1-921, looked up)
chain: MPPKAPRRAAAAEPPPPPPPPPREDDPAQDSGPEELPLARLEFEEIEEPEFIALCQKLKVPDHVRERAWLTWEKVSSVDGILEGYIQKKKELWGICIFIAAVDLDEMPFTFTELQKSIETSVYKFFDLLKEIDTSTKVDNAMSRLLKKYNVLCALYSKLERTCELIYLTQPSSALSTEINSMLVLKISWITFLLAKGEVLQMEDDLVISFQLMLCVVDYFIKFSPPALLREPYKTAAIPINGSPRTPRRGQNRSARIAKQLENDTRIIEVLCKEHECNIDEVKNVYFKNFIPFINSLGIVSSNGLPEVESLSKRYEEVYLKNKDLDARLFLDHDKTLQTDPIDSFETERTPRKNNPDEEANVVTPHTPVRTVMNTIQQLMVILNSASDQPSENLISYFNNCTVNPKENILKRVKDVGHIFKEKFANAVGQGCVDIGVQRYKLGVRLYYRVMESMLKSEEERLSIQNFSKLLNDNIFHMSLLACALEVVMATYSRSTLQHLDSGTDLSFPWILNVLNLKAFDFYKVIESFIKVEANLTREMIKHLERCEHRIMESLAWLSDSPLFDLIKQSKDGEGPDNLEPACPLSLPLQGNHTAADMYLSPLRSPKKRTSTTRVNSAANTETQAASAFHTQKPLKSTSLALFYKKVYRLAYLRLNTLCARLLSDHPELEHIIWTLFQHTLQNEYELMRDRHLDQIMMCSMYGICKVKNIDLKFKIIVTAYKDLPHAAQETFKRVLIREEEFDSIIVFYNSVFMQRLKTNILQYASTRPPTLSPIPHIPRSPYKFSSSPLRIPGGNIYISPLKSPYKISEGLPTPTKMTPRSRILVSIGESFGTSEKFQKINQMVCNSDRVLKRSAEGGNPPKPLKKLRFDIEGADEADGSKHLPAESKFQQKLAEMTSTRTRMQKQRMNESKDVSNKEEK
**Q.** Which “fold less binding than E2F-1/wt” value does the source give for B1 here?
**A.** Its value is 5 fold less.
